{"source": "patent US20080026996A1", "about": "“Selective Vpac2 Receptor Reptide Agonists” (ELI LILLY AND COMPANY, priority 2004, published 2008)", "note": "Where no end group is shown, it is not given here. [ ]: non-standard residue; d: D form. The star is where a group is joined. Orn = NCCC[C@H](N)C(=O)O; Hexanoyl = CCCCCC(=O)*; Aib = CC(C)(N)C(=O)O"}
{"molecular_target": "T1, human VPAC2 receptor (human, UniProt P41587 24-438)", "T1 sequence (looked up)": "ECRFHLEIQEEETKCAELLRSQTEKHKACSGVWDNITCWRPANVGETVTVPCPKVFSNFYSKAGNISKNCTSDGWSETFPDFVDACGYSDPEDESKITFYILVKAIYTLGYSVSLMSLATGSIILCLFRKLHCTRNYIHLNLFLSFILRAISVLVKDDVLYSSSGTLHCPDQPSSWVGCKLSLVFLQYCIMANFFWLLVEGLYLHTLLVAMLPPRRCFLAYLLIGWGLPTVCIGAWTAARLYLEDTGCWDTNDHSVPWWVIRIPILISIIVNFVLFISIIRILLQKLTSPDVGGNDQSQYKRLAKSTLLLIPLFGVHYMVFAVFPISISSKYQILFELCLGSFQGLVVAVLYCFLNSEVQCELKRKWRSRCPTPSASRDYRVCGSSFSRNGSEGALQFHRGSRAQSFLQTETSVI", "experiment": "cell-based or functional assay", "units": {"EC50 cAMP, Alpha Screen": "nM", "EC50 cAMP, DiscoveRx": "nM"}}
{"binder": "Hexanoyl-HSDAVFTDNYTRLR[Aib]QVAAK[Aib]YLQSIKQKGGPSSGAPPPS (ends and bridges not checked)", "note": "[P295]", "EC50 cAMP, Alpha Screen": 0.39}
{"binder": "Hexanoyl-HSDAVFTDNYTRL[Aib]KQVAA[Aib]KYLQSIKQGGPSSGAPPPS (ends and bridges not checked)", "note": "[P296]", "EC50 cAMP, Alpha Screen": 6.69}
{"binder": "Hexanoyl-HSDAVFTDNYTRLRKQVAAKKALQSIKNKRYGGPSSGAPPPS", "note": "[P229]", "EC50 cAMP, Alpha Screen": 2.6}
{"binder": "Hexanoyl-HSDAVFTDNYTRL[Aib]KQVAAKQYLQSIKNKRYGGPSSGAPPPS (ends and bridges not checked)", "note": "[P249]", "EC50 cAMP, Alpha Screen": 0.93}
{"binder": "Hexanoyl-HSDAVFTDNYTRL[Aib]KQVAAVKYLQSIKNKRYGGPSSGAPPPS (ends and bridges not checked)", "note": "[P269]", "EC50 cAMP, Alpha Screen": 1.02}
{"binder": "Hexanoyl-HSDAVFTDNYTRL[Aib]KQVAAAKYLQSIKNKRYGGPSSGAPPPS (ends and bridges not checked)", "note": "[P260]", "EC50 cAMP, Alpha Screen": 0.83}
{"binder": "Hexanoyl-HSDAVFTDNYTRL[Aib]KQVAALKYLQSIKNKRYGGPSSGAPPPS (ends and bridges not checked)", "note": "[P259]", "EC50 cAMP, Alpha Screen": 1.08}
{"binder": "Hexanoyl-HSDAVFTDNYTRL[Orn][Aib]QVAA[Aib]KYLQSIKNKRYGGPSSGAPPPS (ends and bridges not checked)", "note": "[P319]", "EC50 cAMP, Alpha Screen": 0.26}
{"binder": "Hexanoyl-HSDAVFTDNYTRLRKQVAAKKYTQSIKNKRYGGPSSGAPPPS", "note": "[P232]", "EC50 cAMP, Alpha Screen": 1.94}
{"binder": "HSDAVFTDNYTRLXXQVAAXKYLQSIKNKRYGGPSSGAPPPS (N-terminal hexanoyl (C6); hR at 14; Aib at 15, 20)", "note": "[P316]", "EC50 cAMP, Alpha Screen": 0.3}
{"binder": "HSDAVFTDNYTRLXXQVAAXKYLQSIKNKRYGGPSSGAPPPS (N-terminal hexanoyl (C6); Cit at 14; Aib at 15, 20)", "note": "[P320]", "EC50 cAMP, Alpha Screen": 0.49}
{"binder": "Hexanoyl-HSDAVFTDNYTRLR[Aib]QVAA[Aib]KYLQSIKQKGGPSSGAPPPS (ends and bridges not checked)", "note": "[P294]", "EC50 cAMP, Alpha Screen": 0.24}
{"binder": "Hexanoyl-HSDAVFTDNYTRLQKQVAA[Aib]KYLQSIKNKRYGGPSSGAPPPS (ends and bridges not checked)", "note": "[P250]", "EC50 cAMP, Alpha Screen": 0.18}
{"binder": "Hexanoyl-HSDAVFTDNYTRLR[Aib]QVAA[Aib]KYLQSIKQGGPSSGAPPPS (ends and bridges not checked)", "note": "[P297]", "EC50 cAMP, Alpha Screen": 0.36}
{"binder": "Hexanoyl-HSDAVFTDNYTRL[Aib]KQVAA[Aib]KYLQSIKQKGGPSSGAPPPS (ends and bridges not checked)", "note": "[P293]", "EC50 cAMP, Alpha Screen": 1.89}
{"binder": "Hexanoyl-HSDAVFTDNYTRLQ[Aib]QVAAKKYLQSIKNKRYGGPSSGAPPPS (ends and bridges not checked)", "note": "[P258]", "EC50 cAMP, Alpha Screen": 0.17}
{"binder": "Hexanoyl-HSDAVFTDNYTRLR[Aib]QVAALKYLQSIKNKRYGGPSSGAPPPS (ends and bridges not checked)", "note": "[P265]", "EC50 cAMP, Alpha Screen": 0.21}
{"binder": "Hexanoyl-HSDAVFTDNYTRLR[Aib]QVAAAKYLQSIKNKRYGGPSSGAPPPS (ends and bridges not checked)", "note": "[P263]", "EC50 cAMP, Alpha Screen": 0.07}
{"binder": "Hexanoyl-HSDAVFTDNYTRLR[Aib]QVAAVKYLQSIKNKRYGGPSSGAPPPS (ends and bridges not checked)", "note": "[P262]", "EC50 cAMP, Alpha Screen": 0.24}
{"binder": "Hexanoyl-HSDAVFTDNYTRLA[Aib]QVAA[Aib]KYLQSIKNKRYGGPSSGAPPPS (ends and bridges not checked)", "note": "[P301]", "EC50 cAMP, Alpha Screen": 0.89}
{"binder": "Hexanoyl-HSDAVFTDNYTRLR[Aib]QVAA[Aib]AYLQSIKNKRYGGPSSGAPPPS (ends and bridges not checked)", "note": "[P341]", "EC50 cAMP, Alpha Screen": 0.38}
{"binder": "Hexanoyl-HSDAVFTDNYTRLQ[Aib]QVAA[Aib]KYLQSIKNKRYGGPSSGAPPPS (ends and bridges not checked)", "note": "[P302]", "EC50 cAMP, Alpha Screen": 0.45}
{"binder": "Hexanoyl-HSDAVFTDNYTRLR[Aib]QAAA[Aib]KYLQSIKNKRYGGPSSGAPPPS (ends and bridges not checked)", "note": "[P324]", "EC50 cAMP, Alpha Screen": 0.23}
{"binder": "Hexanoyl-HSDAVFTDNYTRLL[Aib]QVAA[Aib]KYLQSIKNKRYGGPSSGAPPPS (ends and bridges not checked)", "note": "[P317]", "EC50 cAMP, Alpha Screen": 0.36}
{"binder": "Hexanoyl-HSDAVFTDNYTRLR[Aib]QVAAK[Aib]YLQSIKQGGPSSGAPPPS (ends and bridges not checked)", "note": "[P298]", "EC50 cAMP, Alpha Screen": 0.5}
{"binder": "HSDAVFTDNYTRLRKQVAAKKYLQSIKRGGPSSGAPPPS", "note": "[P82]", "EC50 cAMP, Alpha Screen": 15.2}
{"binder": "Hexanoyl-HSDAVFTDNYTRLRKQVAAKKYLQSIKNGRPSSGAPPPS", "note": "[P271]", "EC50 cAMP, Alpha Screen": 0.12}
{"binder": "HSDAVFTDNYTRLRKQVAAKKYLQSIKNGRPSSGAPPPS", "note": "[P92]", "EC50 cAMP, Alpha Screen": 10.2, "EC50 cAMP, DiscoveRx": 8.2}
{"binder": "HSDAVFTDNYTRLRKQVAAKKYLQSIKKGGPSSGAPPPS", "note": "[P85]", "EC50 cAMP, Alpha Screen": 22.2}
{"binder": "Hexanoyl-HSDAVFTDNYTRLRKQVAAKKY[Aib]QSIKNKRYGGPSSGAPPPS (ends and bridges not checked)", "note": "[P236]", "EC50 cAMP, Alpha Screen": 0.12}
{"binder": "Hexanoyl-HSDAVFTDNYTRLR[Orn]QVAAKKYLQSIKNKRYGGPSSGAPPPS (ends and bridges not checked)", "note": "[P307]", "EC50 cAMP, Alpha Screen": 0.32}
